Patent publication US20230111363A1 (LMMUNOMETABOLISM DEVELOPMENT, published 2023)
Changes are numbered by the printed parent chain.

T1: human monocarboxylate transporter 1 (MCT1) (human, UniProt P53985 1-500)
T1 construct: Multi-pass transmembrane transporter, endogenous on HEK WT / HEK293T cells and on primary human T and B cells in the assays; also called human MCT1; SLC16A1
T1 sequence: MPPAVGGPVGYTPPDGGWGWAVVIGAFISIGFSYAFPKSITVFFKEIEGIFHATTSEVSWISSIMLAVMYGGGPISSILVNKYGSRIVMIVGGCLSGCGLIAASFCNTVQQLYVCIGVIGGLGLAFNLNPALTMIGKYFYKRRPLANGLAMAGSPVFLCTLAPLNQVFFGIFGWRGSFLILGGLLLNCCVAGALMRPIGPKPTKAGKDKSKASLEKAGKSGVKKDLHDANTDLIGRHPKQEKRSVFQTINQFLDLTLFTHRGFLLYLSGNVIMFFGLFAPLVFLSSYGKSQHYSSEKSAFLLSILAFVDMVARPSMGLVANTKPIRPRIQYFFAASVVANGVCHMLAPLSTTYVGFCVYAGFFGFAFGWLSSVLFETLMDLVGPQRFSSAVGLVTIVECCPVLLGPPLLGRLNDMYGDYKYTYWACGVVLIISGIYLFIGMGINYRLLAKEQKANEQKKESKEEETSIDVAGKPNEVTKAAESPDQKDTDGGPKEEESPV

B1: anti-human MCT1 antibody Ab3 (antibody, human IgG1, kappa, V domains shown)
VH: EVQLVESGGGLVQPGGSLRLSCTVSGFSLTNYHLQWVRQAPGKGLEWVGFIRSSGNTEYNSEFKSRFTISRDDSKNSLYLQMNSLKTEDTAVYYCARNSWYHGTYYSPGYYVMDAWGQGTLVTVSS
VL: DIQMTQSPSTLSASVGDRVTITCKGSQNINNYLAWYQQKPGKAPKLLIYNRHNLQTGVPSRFSGSGSGTEFTLTISSLQPDDFATYYCYQYSDGYTFGGGTKVEIKR
notes: IgG1EN backbone
B2: anti-human MCT1 antibody Ab5 (antibody, human IgG1, kappa, V domains shown)
VH: EVQLVQSGAEVKKPGESLKISCTVSGFSLTNYHLQWVRQMPGKGLEWMGFIRSSGNTEYNSEFKSQVTISADKSISTAYLQWSSLKASDTAMYYCARNSWYHGTYYSPGYYVMDAWGQGTLVTVSS
VL: B1 VL with T10S, E70D, D81E
notes: IgG1EN backbone
B3: anti-human MCT1 antibody Ab4 (antibody, human IgG1, kappa, V domains shown)
VH: B1 VH with Q13K, S77T
VL: B1 VL with T10S, E70D, D81E
notes: IgG1EN backbone
B4: anti-human MCT1 antibody Ab2 (antibody, human IgG1, kappa, V domains shown)
VH: QVQLVQSGAEVKKPGASVKVSCTVSGFSLTNYHLQWVRQAPGQGLEWMGFIRSSGNTEYNSEFKSRVTMTRDTSTSTVYMELSSLRSEDTAVYYCARNSWYHGTYYSPGYYVMDAWGQGTLVTVSS
VL: B1 VL
notes: IgG1EN backbone
B5: anti-human MCT1 antibody Ab7 (antibody, human IgG1, kappa, V domains shown)
VH: B4 VH with F27R, L29R, S99R
VL: EIVLTQSPGTLSLSPGERATLSCKGSQNIENYLAWYQQKPGQAPRLLIYNRHNLQTGIPDRFSGSGSGTDFTLTISRLEPEDFAVYYCYQYSDGYTFGGGTKVEIKR
notes: IgG1EN backbone
B6: anti-human MCT1 antibody Ab19 (antibody, human IgG1, kappa, V domains shown)
VH: B4 VH with F27R, S53R, S99R
VL: B5 VL
notes: IgG1EN backbone
B7: anti-human MCT1 antibody Ab9 (antibody, human IgG1, kappa, V domains shown)
VH: B4 VH with F27R, L34I, S99R
VL: B5 VL
notes: IgG1EN backbone
B8: anti-human MCT1 antibody Ab13 (antibody, human IgG1, kappa, V domains shown)
VH: B4 VH with F27R, S99R, Y101R
VL: B5 VL
notes: IgG1EN backbone
B9: anti-human MCT1 antibody Ab18 (antibody, human IgG1, kappa, V domains shown)
VH: B4 VH with F27R, Q35G, S99R
VL: B5 VL
notes: IgG1EN backbone
B10: anti-human MCT1 antibody Ab8 (antibody, human IgG1, kappa, V domains shown)
VH: B4 VH with F27R, E58I, S99R
VL: B5 VL
notes: IgG1EN backbone
B11: anti-human MCT1 antibody Ab16 (antibody, human IgG1, kappa, V domains shown)
VH: B4 VH with V24R, F27R, S99R
VL: B5 VL
notes: IgG1EN backbone
B12: anti-human MCT1 antibody Ab21 (antibody, human IgG1, kappa, V domains shown)
VH: B4 VH with F27R, S99R, A115P
VL: B5 VL with E30N
notes: IgG1EN backbone
B13: anti-human MCT1 antibody Ab12 (antibody, human IgG1, kappa, V domains shown)
VH: B4 VH with F27R, Q35V, S99R
VL: B5 VL
notes: IgG1EN backbone
B14: anti-human MCT1 antibody Ab14 (antibody, human IgG1, kappa, V domains shown)
VH: B4 VH with F27R, S99R, A115P
VL: B5 VL
notes: IgG1EN backbone
B15: anti-human MCT1 antibody Ab11 (antibody, human IgG1, kappa, V domains shown)
VH: B4 VH with F27R, S99R, Y101H
VL: B5 VL
notes: IgG1EN backbone
B16: anti-human MCT1 antibody Ab20 (antibody, human IgG1, kappa, V domains shown)
VH: B4 VH with F27R, S99L
VL: B5 VL with E30N
notes: IgG1EN backbone
B17: anti-human MCT1 antibody Ab10 (antibody, human IgG1, kappa, V domains shown)
VH: B4 VH with F27R, N31G, S99R
VL: B5 VL
notes: IgG1EN backbone
B18: anti-human MCT1 antibody Ab15 (antibody, human IgG1, kappa, V domains shown)
VH: B4 VH with F27R, S99L
VL: B5 VL
notes: IgG1EN backbone
B19: anti-human MCT1 antibody Ab17 (antibody, human IgG1, kappa, V domains shown)
VH: B4 VH with F27R, Y32I, S99R
VL: B5 VL
notes: IgG1EN backbone

What follows are binders tested against T1, human monocarboxylate transporter 1 … (assay: cell-based MCT1 binding).

B1: binds.
B2: binds.
B3: binds.
B4: binds.

The binders below were run against T1, human monocarboxylate transporter 1 … (assay: cell-based or functional assay).

In order of rising “IC50 of inhibition of MCT1 mediated transport (bromopyruvate assay, HEK293T cells)” value:
1. B10  21 nM
2. B5  28 nM
3. B11  31 nM
4. B6  35 nM
5. B7  35 nM
6. B15  35 nM
7. B19  38 nM
8. B13  39 nM
9. B17  39 nM
10. B14  40 nM
11. B9  41 nM
12. B8  42 nM
13. B18  48 nM
14. B12  50 nM
15. B16  83 nM

Each binder was assayed against T1, human monocarboxylate transporter 1 … (assay: competition MSD binding assay, antibody titrated with HEK WT cells expressing MCT1, apparent KD, screening at 25 C).
Procedure: The mix was incubated at 37° C. for 1-2 days. After incubation, the incubated samples were spun down for 5 min at 500×g to remove cells. A 96-well multi-array plate (Meso Scale Diagnostics, Cat. #L15XA-3) was coated at 4° C. overnight with 1 μg/mL of goat anti human FC in phosphate buffered saline (PBS). Following coating, plates were washed 3 times with 150 μL PBST (PBS with 0.05% Tween 20) and blocked with 150 μL/well of PBS 3% blocker A buffer (Cat #R93BA-1) at 25° C. for 1 hr. Plates were then washed 3 times with PBST. 50 μL of the preincubated antibody: cell dilution series was transferred to the wells and incubated at 25° C. with 700 rpm shaking for 1 hr. Plates were washed 3 times with PBST. Then 100 μL of 1 μg/mL anti-human kappa-biotin antibody (Cat. #2060-08) was added, and plates were incubated at 25° C. with 700 rpm shaking […]. Plates were washed 3 times with PBST, followed by addition of 100 μL of 1 μg/mL MSD Sulfo-tag streptavidin antibody (Meso Scale Diagnostics Cat. #R32 AD1), and plates were incubated at 25° C. with 700 rpm shaking for 1 hr. Plates were washed 3 times with PBST, 150 μL/well of 1× Read Buffer T was added to the wells and analyzed on a SECTOR® Imager 6000 (Meso Scale Diagnostics) 15 min after buffer addition. The apparent KD is determined by fitting a sigmoidal curve to the electrochemiluminescence (ECL) response vs. log (MCT1 receptor concentration) using assay development tool kit graphed with normalized ECL values.

In order of falling Kd:
1. B9  5.14 nM
2. B7  4.56 nM
3. B8  2.82 nM
4. B18  1.96 nM
5. B15  1.91 nM
6. B13  1.64 nM
7. B14  1.31 nM
8. B19  1.04 nM
9. B12  0.85 nM
10. B17  0.85 nM
11. B11  0.71 nM
12. B16  0.64 nM
13. B10  0.55 nM
14. B5  0.47 nM
15. B6  0.46 nM

Biological target: T1, human monocarboxylate transporter 1 …
Test: cell-based or functional assay
Remark: another data set of the same source

In order of falling “IC50 of inhibition of CD4 T cell proliferation” value:
1. B16  13 nM
2. B9  6 nM
3. B12  6 nM
4. B6  5 nM
5. B11  5 nM
6. B14  5 nM
7. B18  5 nM
8. B19  5 nM
9. B7  4 nM
10. B13  4 nM
11. B15  4 nM
12. B8  3 nM
13. B10  3 nM
14. B17  3 nM
15. B5  2 nM

In order of falling “IC50 of inhibition of CD8 T cell proliferation” value:
1. B18  8 nM
2. B17  7 nM
3. B14  6 nM
4. B16  6 nM
5. B7  5 nM
6. B13  5 nM
7. B15  5 nM
8. B5  4 nM
9. B8  4 nM
10. B12  4 nM
11. B6  3 nM
12. B10  3 nM
13. B11  3 nM
14. B9  2 nM
15. B19  2 nM
